Variants at the floor of the assay were thinned out.
What was measured:
biotinyl-Phe-oxazolone = test: self-aminoacylation, catalytic enhancement (BFO) (fold over background); higher = more active; k-Seq, kA / k0A0; sequences stand for … in GGGAAUGGAUCCACAUCUACGAAUUC…UUCACUGCAGACUUGACGAAGCUG
In short: (§1)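 Working in 50 μL HEPES/NaCl/KCl/MgCl2/CaCl2 buffer with 5% acetonitrile at pH 6.9–7.0, mutagenized RNA pools (0.43 μM; 21-nt variable region) were reacted with 2–1250 μM of each biotinyl-aminoacyl-oxazolone for 90 minutes at room temperature. Streptavidin capture followed, with quantification by triplicate qPCR and Illumina sequencing. Catalytic enhancement is reported as median kA over the uncatalyzed rate, the low-activity peak of a bimodal Gaussian fit to the data.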

biotinyl-Met-oxazolone = test: self-aminoacylation, catalytic enhancement (BMO) (fold over background); higher = more active; k-Seq, kA / k0A0; sequences stand for … in GGGAAUGGAUCCACAUCUACGAAUUC…UUCACUGCAGACUUGACGAAGCUG
In short: as §1

biotinyl-Trp-oxazolone = test: self-aminoacylation, catalytic enhancement (BWO) (fold over background); higher = more active; k-Seq, kA / k0A0; sequences stand for … in GGGAAUGGAUCCACAUCUACGAAUUC…UUCACUGCAGACUUGACGAAGCUG
In short: as §1

biotinyl-Ile-oxazolone = test: self-aminoacylation, catalytic enhancement (BIO) (fold over background); higher = more active; k-Seq, kA / k0A0; sequences stand for … in GGGAAUGGAUCCACAUCUACGAAUUC…UUCACUGCAGACUUGACGAAGCUG
In short: as §1

biotinyl-Leu-oxazolone = test: self-aminoacylation, catalytic enhancement (BLO) (fold over background); higher = more active; k-Seq, kA / k0A0; sequences stand for … in GGGAAUGGAUCCACAUCUACGAAUUC…UUCACUGCAGACUUGACGAAGCUG
In short: as §1

biotinyl-Val-oxazolone = test: self-aminoacylation, catalytic enhancement (BVO) (fold over background); higher = more active; k-Seq, kA / k0A0; sequences stand for … in GGGAAUGGAUCCACAUCUACGAAUUC…UUCACUGCAGACUUGACGAAGCUG
In short: as §1

Sequence | self-aminoacylation (biotinyl-Phe-oxazolone) | self-aminoacylation (biotinyl-Met-oxazolone) | self-aminoacylation (biotinyl-Trp-oxazolone) | self-aminoacylation (biotinyl-Ile-oxazolone) | self-aminoacylation (biotinyl-Leu-oxazolone) | self-aminoacylation (biotinyl-Val-oxazolone)
AUUACCCUGGUCUUCAAGUGA [Fam2.1 aminoacylation ribozyme variant] | 23.8 | 4.91 | 5.67 | 2.76 | 4.28 | 2.67
CCAUACAUCAAGCAAUCGGUC [Fam1B.1 aminoacylation ribozyme variant] | 1.06 | 0.792 | 0.687 | 1.04 | 0.841 | 0.981
CCACACUUUAAGCGAUCGGUC [Fam1B.1 aminoacylation ribozyme variant] | 0.891 | 1.16 | 1.03 | 1.13 | 1.25 | 1.11
AAGUUUGCUAAUAGUGGCGAG [Fam3.1 aminoacylation ribozyme variant] | 1.2 | 0.875 | 0.531 | 0.939 | 1.09 | 0.88
CCUCACUUCAAGCAAUCGGCC [Fam1B.1 aminoacylation ribozyme variant] | 5.49 | 1.53 | 5.38 | 1.9 | 1.59 | 2.39
AAGUUUGCCAAUAGACGCAAG [Fam3.1 aminoacylation ribozyme variant] | 0.674 | 0.625 | 0.482 | 0.591 | 0.562 | 0.664
AAGUUUGCUAAAAGUCGCAGG [Fam3.1 aminoacylation ribozyme variant] | 1.77 | 1.37 | 1.3 | 1.26 | 1.07 | 1.12
AAGUUUGCUAACAGUCGCAAG [Fam3.1 aminoacylation ribozyme variant] | 21.1 | 1.29 | 5.51 | 1.18 | 0.961 | 1.06
AAGUUCGCUAACAGUCGCAAG [Fam3.1 aminoacylation ribozyme variant] | 2.24 | 1.36 | 1.06 | 1.45 | 1.81 | 1.33
AUUCACCUAGGGUAUCGGGUG [Fam2.2 aminoacylation ribozyme variant] | 50.9 | 6.75 | 6.31 | 3.84 | 8.63 | 3.99
CAACUUCAACCAAUCGGUCUG [Fam1A.1 aminoacylation ribozyme variant] | 66.9 | 1.67 | 33.2 | 1.37 | 2.41 | 1.61
GCACACUUCACGCAAUCGGUC [Fam1B.1 aminoacylation ribozyme variant] | 10.1 | 2 | 3.02 | 2.5 | 1.93 | 2.22
AAAUUUGCUAAUAGUCGCACG [Fam3.1 aminoacylation ribozyme variant] | 1.47 | 1.38 | 1.81 | 1.58 | 1.42 | 1.72
CUACUUCAAUCAAACGGUCUG [Fam1A.1 aminoacylation ribozyme variant] | 0.638 | 0.639 | 0.481 | 0.637 | 0.671 | 0.794
AUUCACCUAGUUCACCGGGUG [Fam2.2 aminoacylation ribozyme variant] | 15.6 | 3.25 | 3.92 | 2.37 | 3.58 | 2.41
CUACUGCAACCAAUCGGUCUG [Fam1A.1 aminoacylation ribozyme variant] | 0.691 | 0.585 | 0.608 | 0.53 | 0.495 | 0.567
AUUCACAUAGGGCAUCGGGUG [Fam2.2 aminoacylation ribozyme variant] | 20.9 | 4.4 | 4.52 | 3.83 | 3.62 | 3.39
CCAUACUUCAAGCAAUCCGUC [Fam1B.1 aminoacylation ribozyme variant] | 0.96 | 0.829 | 0.766 | 1.15 | 0.949 | 1.12
AAGUUUGCUAAAUGUCGCAAG [Fam3.1 aminoacylation ribozyme variant] | 0.96 | 0.876 | 0.74 | 1 | 1.1 | 0.837
AUUACCGAGGUCAUCGAGUGA [Fam2.1 aminoacylation ribozyme variant] | 38.1 | 6.93 | 10.8 | 3.99 | 8.4 | 4.64
AAAUUUGCAAAUAGUCGCAAG [Fam3.1 aminoacylation ribozyme variant] | 2.27 | 1.35 | 1.82 | 1.9 | 1.82 | 1.37

Sequence | self-aminoacylation (biotinyl-Phe-oxazolone) | self-aminoacylation (biotinyl-Met-oxazolone) | self-aminoacylation (biotinyl-Trp-oxazolone) | self-aminoacylation (biotinyl-Ile-oxazolone) | self-aminoacylation (biotinyl-Leu-oxazolone) | self-aminoacylation (biotinyl-Val-oxazolone)
CCAGACUUCAAGCAAUCGAUC [Fam1B.1 aminoacylation ribozyme variant] | 1.51 | 0.559 | 0.639 | 0.714 | 0.614 | 0.778
AUUCAUCUAGGACAUCGGGUG [Fam2.2 aminoacylation ribozyme variant] | 17.3 | 3.39 | 3.07 | 2.75 | 3.59 | 2.74
AUUCCCCGAGGUCAUCGGGUG [Fam2.2 aminoacylation ribozyme variant] | 188 | 22.7 | 20.2 | 12.5 | 29.9 | 14
CGACACUUCAACCAAUCGGUC [Fam1B.1 aminoacylation ribozyme variant] | 18.2 | 1.61 | 13.4 | 1.38 | 1.65 | 1.6
AUUACCCUGGUUAUCGGGUGA [Fam2.1 aminoacylation ribozyme variant] | 94.3 | 12.8 | 14.8 | 5.12 | 13.6 | 6.66
AUCACCCUGGUCUUCGAGUGA [Fam2.1 aminoacylation ribozyme variant] | 50.3 | 8.01 | 9.14 | 3.81 | 8.44 | 4.74
ACACACUACAAGCAAUCGGUC [Fam1B.1 aminoacylation ribozyme variant] | 1.65 | 0.815 | 1.02 | 1.2 | 0.855 | 1.24
AUCCACCGAGGUCAUCGGGUG [Fam2.2 aminoacylation ribozyme variant] | 125 | 9.91 | 7.06 | 5.2 | 13.4 | 6.67
CCACUCUUCAAGCAAGCGGUC [Fam1B.1 aminoacylation ribozyme variant] | 0.629 | 0.806 | 0.585 | 0.909 | 1.09 | 0.97
CUACUUCAAACAAUUGGUCGG [Fam1A.1 aminoacylation ribozyme variant] | 0.858 | 0.91 | 0.932 | 1.25 | 1.18 | 1.11
CUACUUCAAAGAUUCGGUCUG [Fam1A.1 aminoacylation ribozyme variant] | 0.503 | 1.09 | 0.679 | 1.01 | 0.97 | 1.08
AUUACCCUGGUCUUCGCGUGA [Fam2.1 aminoacylation ribozyme variant] | 55.2 | 9.58 | 11.5 | 5.89 | 9.77 | 6.16
UCACACUUCAAGCCAUCGGUC [Fam1B.1 aminoacylation ribozyme variant] | 0.948 | 1.08 | 0.854 | 1.01 | 1.1 | 1.24
UUUUACCUAGGUCAUCGGGUG [Fam2.2 aminoacylation ribozyme variant] | 56.1 | 10.3 | 10.4 | 6.78 | 13.5 | 6.67
CCACUCUUCAAGCAAUCGAUC [Fam1B.1 aminoacylation ribozyme variant] | 1.28 | 0.448 | 0.516 | 0.542 | 0.522 | 0.735
AUUCACCAAGGUCGUCGGGUG [Fam2.2 aminoacylation ribozyme variant] | 12.9 | 2.2 | 2.29 | 2.09 | 3.05 | 2.58
CUACAUCAAACAAUCGGGCUG [Fam1A.1 aminoacylation ribozyme variant] | 0.764 | 1.44 | 1.29 | 1.36 | 0.965 | 1.3
CUUCUACAAACAAUCGGUCUG [Fam1A.1 aminoacylation ribozyme variant] | 0.956 | 0.763 | 0.564 | 0.694 | 0.623 | 0.831
AUAACCCUGGUCAUCGAGUGU [Fam2.1 aminoacylation ribozyme variant] | 69.6 | 20 | 16.4 | 6.98 | 17.9 | 7.4
AAGUUUGCUAAUGGGCGCAAG [Fam3.1 aminoacylation ribozyme variant] | 0.784 | 0.695 | 1.5 | 0.937 | 1.08 | 0.874
CGACUUCAAACAAUUGGUCUG [Fam1A.1 aminoacylation ribozyme variant] | 1.57 | 0.91 | 1.25 | 1.06 | 0.999 | 0.891

— the supplement of paper PMC9233669
